For 4 molecules, pKd results are on record in publication PMC9482650, “Quantitative fragmentomics allow affinity mapping of interactomes” (Nature Communications, 2022).

Experiment in all cases: holdup assay
Common to all, as to set-up: key: below the threshold = too weak to quantify, mostly under pKd 3.1 to 4

Assay [1] concerns the target DLG1_1, Q12959.
Assay [2] addresses HTRA1, Q92743.
In assay [3] the target is T1, ARHGAP21, Q5T5U3.
T1 sequence (Q5T5U3 45-169, limits assumed, looked up): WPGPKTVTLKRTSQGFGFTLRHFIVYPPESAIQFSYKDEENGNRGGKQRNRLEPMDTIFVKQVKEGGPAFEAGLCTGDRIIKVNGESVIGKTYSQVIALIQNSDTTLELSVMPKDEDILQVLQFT

Assay [4] has as its target T2, PCLO, Q9Y6V0.
T2 sequence (Q9Y6V0 4491-4600, limits assumed, looked up): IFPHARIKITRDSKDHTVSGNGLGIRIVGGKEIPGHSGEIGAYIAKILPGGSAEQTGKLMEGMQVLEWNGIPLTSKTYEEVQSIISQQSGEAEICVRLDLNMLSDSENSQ

Assay [5] addresses T3, SNTG1, Q9NSN8.
T3 sequence (Q9NSN8 52-150, limits assumed, looked up): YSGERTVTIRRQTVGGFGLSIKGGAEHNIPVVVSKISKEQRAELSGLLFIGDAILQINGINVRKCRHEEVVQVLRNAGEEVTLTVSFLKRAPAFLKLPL

For assay [6], the target named is GRIP2_4, Q9C0E4.
Sequence of GRIP2_4, Q9C0E4 (Q9C0E4 446-548): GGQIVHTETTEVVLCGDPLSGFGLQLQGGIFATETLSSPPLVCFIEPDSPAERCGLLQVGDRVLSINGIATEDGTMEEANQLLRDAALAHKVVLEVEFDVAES
Assay [7] deals with T4, PTPN13_1, Q12923.
T4 sequence (Q12923 1088-1188, limits assumed, looked up): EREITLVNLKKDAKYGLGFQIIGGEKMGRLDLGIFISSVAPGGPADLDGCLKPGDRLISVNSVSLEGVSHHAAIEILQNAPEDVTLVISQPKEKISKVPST

The target of assay [8] is T5, APBA3_1, O96018.
T5 sequence (O96018 389-490, limits assumed, looked up): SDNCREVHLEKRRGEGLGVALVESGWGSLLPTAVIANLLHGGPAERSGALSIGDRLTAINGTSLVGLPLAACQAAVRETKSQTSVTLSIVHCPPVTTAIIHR

Assay [9] deals with GRID2IP_1, A4D2P6.
Sequence of GRID2IP_1, A4D2P6 (A4D2P6 1-87): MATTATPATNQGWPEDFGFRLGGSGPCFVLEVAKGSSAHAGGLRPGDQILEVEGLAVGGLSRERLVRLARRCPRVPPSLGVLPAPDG
Assay [10] concerns the target T6, GRIP1_3, Q9Y3R0.
T6 sequence (Q9Y3R0 247-346, limits assumed, looked up): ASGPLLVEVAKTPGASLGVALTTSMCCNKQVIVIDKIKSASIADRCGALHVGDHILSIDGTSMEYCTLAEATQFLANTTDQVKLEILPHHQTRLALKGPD

In assay [11] the target is IL16_1, Q14005.
Sequence of IL16_1, Q14005 (Q14005 210-306): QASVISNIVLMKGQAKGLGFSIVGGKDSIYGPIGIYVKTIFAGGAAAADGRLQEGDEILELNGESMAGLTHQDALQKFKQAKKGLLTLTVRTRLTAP
Assay [12] addresses PARD3_3, Q8TEW0.
Assay [13] addresses FRMPD3, Q5JV73.
The target in assay [14] is PTPN3, P26045.
Sequence of PTPN3, P26045 (P26045 505-587): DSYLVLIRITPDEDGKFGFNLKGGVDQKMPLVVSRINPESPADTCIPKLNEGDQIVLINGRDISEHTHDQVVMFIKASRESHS
In assay [15] the target is T7, SYNJ2BP, P57105.
T7 sequence (P57105 8-110, limits assumed, looked up): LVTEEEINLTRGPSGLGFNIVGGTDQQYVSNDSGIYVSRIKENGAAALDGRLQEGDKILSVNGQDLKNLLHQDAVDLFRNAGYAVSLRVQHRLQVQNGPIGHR

For assay [16], the target named is LNX1_2, Q8TBB1.
Sequence of LNX1_2, Q8TBB1 (Q8TBB1 371-470): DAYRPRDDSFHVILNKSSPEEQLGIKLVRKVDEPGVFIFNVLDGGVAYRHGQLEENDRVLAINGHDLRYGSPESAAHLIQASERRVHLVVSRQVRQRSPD
In assay [17] the target is LNX1_1, Q8TBB1.
Sequence of LNX1_1, Q8TBB1 (Q8TBB1 261-371): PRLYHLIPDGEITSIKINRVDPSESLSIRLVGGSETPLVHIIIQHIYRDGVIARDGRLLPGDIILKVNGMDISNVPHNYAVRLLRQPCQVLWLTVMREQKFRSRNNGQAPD
Assay [18] deals with GRIP2_7, Q9C0E4.
Sequence of GRIP2_7, Q9C0E4 (Q9C0E4 934-1023): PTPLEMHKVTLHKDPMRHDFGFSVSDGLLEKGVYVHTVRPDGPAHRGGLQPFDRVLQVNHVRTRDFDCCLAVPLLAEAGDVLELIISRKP
Assay [19] concerns the target T8, MPDZ_12, O75970.
T8 sequence (O75970 1857-1958, limits assumed, looked up): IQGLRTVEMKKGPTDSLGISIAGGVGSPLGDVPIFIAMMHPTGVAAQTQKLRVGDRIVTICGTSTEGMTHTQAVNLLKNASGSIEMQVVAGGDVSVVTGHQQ

Assay [20] concerns the target T9, TJP3_3, O95049.
T9 sequence (O95049 375-456, limits assumed, looked up): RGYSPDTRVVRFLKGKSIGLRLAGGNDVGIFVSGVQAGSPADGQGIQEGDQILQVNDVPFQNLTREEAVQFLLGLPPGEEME

The target of assay [21] is T10, LIN7C, Q9NUP9.
T10 sequence (Q9NUP9 88-185, limits assumed, looked up): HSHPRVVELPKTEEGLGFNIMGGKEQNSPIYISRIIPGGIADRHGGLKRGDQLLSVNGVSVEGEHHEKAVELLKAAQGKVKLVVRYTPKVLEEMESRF

The target of assay [22] is T11, LNX2_3, Q8N448.
T11 sequence (Q8N448 463-564, limits assumed, looked up): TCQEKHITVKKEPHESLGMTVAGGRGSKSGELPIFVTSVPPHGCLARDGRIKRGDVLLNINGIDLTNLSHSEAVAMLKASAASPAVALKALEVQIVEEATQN

In assay [23] the target is T12, APBA2_2, Q99767.
T12 sequence (Q99767 654-744, limits assumed, looked up): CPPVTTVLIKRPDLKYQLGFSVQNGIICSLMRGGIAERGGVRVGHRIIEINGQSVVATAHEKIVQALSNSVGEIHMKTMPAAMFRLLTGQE

For assay [24], the target named is T13, LNX2_2, Q8N448.
T13 sequence (Q8N448 334-432, limits assumed, looked up): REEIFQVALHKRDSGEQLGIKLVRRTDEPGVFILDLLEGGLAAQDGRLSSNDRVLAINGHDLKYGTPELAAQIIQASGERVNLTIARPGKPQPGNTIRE

Where [25] appears, read: plain residues with an end cap or a label only (N-terminal biotin on a linker: ttds).
Where [26] appears, read: plain residues with an end cap or a label only (N-terminal biotin on a linker: ahx).

Sequence of PARD3_3, Q8TEW0 (Q8TEW0 582-685): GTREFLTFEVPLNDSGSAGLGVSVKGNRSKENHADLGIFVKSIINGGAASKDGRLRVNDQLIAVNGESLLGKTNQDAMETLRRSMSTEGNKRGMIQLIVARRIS
Sequence of FRMPD3, Q5JV73 (Q5JV73 12-100): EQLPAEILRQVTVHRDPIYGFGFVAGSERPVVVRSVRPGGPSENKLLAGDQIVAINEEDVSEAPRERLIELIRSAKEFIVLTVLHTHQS
Sequence of HTRA1, Q92743 (Q92743 360-477): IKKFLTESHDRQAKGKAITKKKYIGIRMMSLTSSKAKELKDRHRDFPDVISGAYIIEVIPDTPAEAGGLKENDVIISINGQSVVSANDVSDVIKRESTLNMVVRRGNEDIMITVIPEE

The term pKd denotes −log10 of the Kd, conventionally taken in molar units. For the molecule SHSSKGETAV [FZD7, O75084], the pKd was 4.72 in [1] (setting [25]); “below the threshold” in [2] (setting [25]); “below the threshold” in assay [3] (setting [25]); “below the threshold” in [4] (setting [25]); 4.32 in assay [5] (setting [25]); “below the threshold” in assay [6] (setting [25]). Besides, the pKd entry in assay [7] (setting [25]) was “below the threshold”; in [8] (setting [25]), “below the threshold”; in assay [9] (setting [25]), “below the threshold”; in assay [10] (setting [25]) it was “below the threshold”; in assay [11] (setting [25]), 3.66; in assay [12] (setting [25]), “below the threshold”. For the same molecule, the pKd entry in assay [13] (setting [25]) is “below the threshold”; in assay [14] (setting [25]), 4.84; in assay [15] (setting [25]) it was 5.08; in assay [16] (setting [25]), “below the threshold”; in [17] (setting [25]), “below the threshold”; in assay [18] (setting [25]) it was “below the threshold”. Besides, the pKd entry in [19] (setting [25]) was “below the threshold”; in [20] (setting [25]), “below the threshold”; in [21] (setting [25]), 4.03; in assay [22] (setting [25]) it was “below the threshold”; in [23] (setting [25]) it was “below the threshold”; in assay [24] (setting [25]), “below the threshold”.
Regarding KLVIKTETTV [RASSF6, Q6ZTQ3], the pKd in assay [1] (setting [25]) was 4.88; in assay [2] (setting [25]) it was 3.75; in [3] (setting [25]), “below the threshold”; in [4] (setting [25]), “below the threshold”; in assay [5] (setting [25]), 4.16; in assay [6] (setting [25]) it was “below the threshold”. The negative-log Kd (pKd) entry in assay [7] (setting [25]), in assay [8] (setting [25]), in assay [9] (setting [25]), in [10] (setting [25]), in [11] (setting [25]) and in [12] (setting [25]) was “below the threshold” throughout. Moreover, the pKd entry in assay [13] (setting [25]) is “below the threshold”; in assay [14] (setting [25]), 4.44; in assay [15] (setting [25]), 4.97; in assay [16] (setting [25]), 3.66; in [17] (setting [25]), “below the threshold”; in [18] (setting [25]) it was “below the threshold”. In addition, the pKd entry was “below the threshold” in assay [19] (setting [25]); “below the threshold” in assay [20] (setting [25]); 4.23 in assay [21] (setting [25]); “below the threshold” in assay [22] (setting [25]); “below the threshold” in [23] (setting [25]); 4.48 in [24] (setting [25]).
With KEYDDELTFF [USH1C, Q9Y6N9], the pKd entry in assay [1] (setting [26]) is “below the threshold”; in [2] (setting [26]), 4.3; in assay [3] (setting [26]), 3.87; in [4] (setting [26]), “below the threshold”; in [5] (setting [26]) it was “below the threshold”; in [6] (setting [26]), “below the threshold”. In addition, the pKd result is “below the threshold” in assay [7] (setting [26]); “below the threshold” in assay [8] (setting [26]); “below the threshold” in assay [9] (setting [26]); “below the threshold” in [10] (setting [26]); “below the threshold” in assay [11] (setting [26]); 5.09 in [12] (setting [26]). Besides, the pKd is 4.7 in assay [13] (setting [26]); 3.71 in [14] (setting [26]); “below the threshold” in assay [15] (setting [26]); “below the threshold” in assay [16] (setting [26]); “below the threshold” in [17] (setting [26]); “below the threshold” in assay [18] (setting [26]). Also, the pKd result in assay [19] (setting [26]), in [20] (setting [26]), in [21] (setting [26]), in assay [22] (setting [26]), in assay [23] (setting [26]) and in assay [24] (setting [26]) was “below the threshold” throughout.
PFRSRSPSEV [GPR6, P46095]: the pKd result in assay [1] (setting [25]), in [2] (setting [25]), in [3] (setting [25]), in assay [4] (setting [25]), in assay [5] (setting [25]) and in assay [6] (setting [25]) was “below the threshold” each time. In addition, the pKd result in assay [7] (setting [25]), in assay [8] (setting [25]), in [9] (setting [25]), in [10] (setting [25]), in assay [11] (setting [25]) and in assay [12] (setting [25]) was “below the threshold” each time. Also, the pKd result is “below the threshold” in assay [13] (setting [25]); 3.95 in [14] (setting [25]); 4.18 in [15] (setting [25]); “below the threshold” in [16] (setting [25]); “below the threshold” in assay [17] (setting [25]); “below the threshold” in assay [18] (setting [25]). For the same molecule, the pKd result in assay [19] (setting [25]) is “below the threshold”; in assay [20] (setting [25]) it was “below the threshold”; in [21] (setting [25]), 3.63; in assay [22] (setting [25]) it was “below the threshold”; in assay [23] (setting [25]), “below the threshold”; in [24] (setting [25]) it was “below the threshold”.
